Measured values published in US20240327535A1 (EISAI R AND D MANAGEMENT, published 2024).
Where a chain is given by its changes, count along the chain named.

T1: extracellular domain of human BCMA (human, UniProt Q02223 1-54)
T1 construct: amine-linked to Octet AR2G tips; also called hsBCMA; BCMA (human)
T1 sequence: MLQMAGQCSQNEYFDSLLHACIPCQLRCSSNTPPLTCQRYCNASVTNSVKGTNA

B1: AB200-R1a-Fab_VH8 (Fab, V domains shown)
VH: QVQLVQSGAEVKKPGSSVKVSCKASGGTFSNYWMHWVRQAPGQGLEWMGATYRSHSDTYYNQKFKGRVTITADESTSTAYMELSSLRSEDTAVYYCARGAIFHGYDVLDNWGQGTLVTVSS
VL: DIQMTQSPSSLSASVGDRVTITCSATQDISNYLNWYQQKPGKAPKLLIYFTSNLQSGVPSRFSGSGSGTDFTLTISSLQPEDFATYYCQQYRKLPWTFGQGTKLEIKR
B2: AB200-R1a-Fab_VH16 (Fab, V domains shown)
VH: B1 VH with N31T, S54I, F102Y
VL: B1 VL
B3: AB200-R1a-Fab_VH56 (Fab, V domains shown)
VH: B1 VH with M34I, S54G, K65R, E74K, A100T, F102Y
VL: B1 VL
B4: AB200-R1a-Fab_VH57 (Fab, V domains shown)
VH: B1 VH with F29Y, W33Y, S54G, D57E, E74K, F102Y
VL: B1 VL
B5: AB200-R1a-Fab_VH50 (Fab, V domains shown)
VH: B1 VH with Y52F, S54G, G66S, E74K, I101V, F102Y
VL: B1 VL
B6: AB200-R1a-Fab_VH32 (Fab, V domains shown)
VH: B1 VH with G66S, E74K, F102Y, L108I
VL: B1 VL
B7: AB200-R1a-Fab_VH59 (Fab, V domains shown)
VH: B1 VH with S25T, W33A, T51S, S54G, E74K, F102Y
VL: B1 VL
B8: AB200-R1a-Fab_VH54 (Fab, V domains shown)
VH: B1 VH with S54G, S56G, Y59F, E74K, F102Y, D109N
VL: B1 VL
B9: AB200-R1a-Fab_VH60 (Fab, V domains shown)
VH: B1 VH with N31S, S54I, T58S, E74K, F102Y
VL: B1 VL
B10: AB200-R1a-Fab(hCDR2) (Fab, V domains shown)
VH: B1 VH with S54G, E74K, F102Y
VL: B1 VL with T26S, F50A, T51A, N53S
B11: AB200-R1a-Fab_Vk7 (Fab, V domains shown)
VH: B1 VH with S54G, E74K, F102Y
VL: B1 VL with T26S, Y32F, F50Y, Q55H, Y91F, L94M
B12: AB200-R1a-Fab_Vk22 (Fab, V domains shown)
VH: B1 VH with S54G, E74K, F102Y
VL: B1 VL with S24R, T26S, F50Y, Q55H, K93S, L94I
B13: AB200-R1a-Fab_Vk27 (Fab, V domains shown)
VH: B1 VH with S54G, E74K, F102Y
VL: B1 VL with T26S, S30T, Q55H, R92Y
B14: AB200-R1a-Fab_Vk28 (Fab, V domains shown)
VH: B1 VH with S54G, E74K, F102Y
VL: B1 VL with T26S, Y32F, F50Y, L54M, Q55H, K93S
B15: AB200-R1a-Fab_Vk3 (Fab, V domains shown)
VH: B1 VH with S54G, E74K, F102Y
VL: B1 VL with T26S, L33I, F50Y, L54M, Q55H, T97S
B16: AB200-R1a-Fab_Vk8 (Fab, V domains shown)
VH: B1 VH with S54G, E74K, F102Y
VL: B1 VL with T26S, F50Y, Q89H, Y91S
B17: AB200-R1a-Fab_Vk10 (Fab, V domains shown)
VH: B1 VH with S54G, E74K, F102Y
VL: B1 VL with T26S, D28S, F50Y, Q55H, Y91S, L94M
B18: AB200-R1a-Fab_Vk2 (Fab, V domains shown)
VH: B1 VH with S54G, E74K, F102Y
VL: B1 VL with T26S, D28E, I29V, F50Y, Q55H, Q90E
B19: AB200-R1a-Fab_Vk19 (Fab, V domains shown)
VH: B1 VH with S54G, E74K, F102Y
VL: B1 VL with T26S, Q27N, L33I, F50Y, Q55H, Y91F
B20: AB200-R1a-Fab_Vk1 (Fab, V domains shown)
VH: B1 VH with S54G, E74K, F102Y
VL: B1 VL with S24R, T26S, N31S, F50Y, L54I, Q55H
B21: AB200-R1a-Fab_Vk23 (Fab, V domains shown)
VH: B1 VH with S54G, E74K, F102Y
VL: B1 VL with T26S, F50Y, L54I, Q55H, R92K, L94M
B22: AB200-R1a-Fab_Vk17 (Fab, V domains shown)
VH: B1 VH with S54G, E74K, F102Y
VL: B1 VL with F50Y, S52T, Q55H, R92Y
B23: AB200-R1a-Fab_Vk24 (Fab, V domains shown)
VH: B1 VH with S54G, E74K, F102Y
VL: B1 VL with T26S, Q27N, D28S, F50Y, T51A, Q55H
B24: AB200-R1a-Fab_Vk13 (Fab, V domains shown)
VH: B1 VH with S54G, E74K, F102Y
VL: B1 VL with T26S, Q27N, F50Y, T51S, N53D, Q55H
B25: AB200-R1a-Fab(hCDR3) (Fab, V domains shown)
VH: B1 VH with S54G, E74K, F102Y
VL: B1 VL with T26S, F50Y, Q55H, Y91S, R92Y, K93S, L94T
B26: AB200-R1a-Fab_Vk21 (Fab, V domains shown)
VH: B1 VH with S54G, E74K, F102Y
VL: B1 VL with T26S, F50Y, Q55H, Q89H, R92K, L94T
B27: AB200-R1a-Fab_Vk26 (Fab, V domains shown)
VH: B1 VH with S54G, E74K, F102Y
VL: B1 VL with T26S, F50Y, T51S, N53S, Q55H, S56I
B28: AB200-R1a-Fab_Vk34 (Fab, V domains shown)
VH: B1 VH with S54G, E74K, F102Y
VL: B1 VL with T26S, Q27H, F50Y, Q55H, Q89H, Q90E
B29: AB200-R1a-Fab_Vk18 (Fab, V domains shown)
VH: B1 VH with S54G, E74K, F102Y
VL: B1 VL with S24T, T26S, F50Y, N53D, Q55H, S56I
B30: AB200-R1a-Fab_Vk36 (Fab, V domains shown)
VH: B1 VH with S54G, E74K, F102Y
VL: B1 VL with T26S, I29L, F50Y, K93R
B31: AB200-R1a-Fab_Vk20 (Fab, V domains shown)
VH: B1 VH with S54G, E74K, F102Y
VL: B1 VL with T26S, Y32F, F50Y, N53D, Q55H, R92Y
B32: AB200-R1a-Fab_Vk14 (Fab, V domains shown)
VH: B1 VH with S54G, E74K, F102Y
VL: B1 VL with T26S, F50Y, T51S, L54M, Q55H, Y91F
B33: AB200-R1a-Fab_Vk9 (Fab, V domains shown)
VH: B1 VH with S54G, E74K, F102Y
VL: B1 VL with T26S, D28E, F50A, Q55H, T97S
B34: AB200-R1a-Fab_Vk32 (Fab, V domains shown)
VH: B1 VH with S54G, E74K, F102Y
VL: B1 VL with T26S, I29L, F50Y, N53S, Q55H, L94T
B35: AB200-R1a-Fab_Vk29 (Fab, V domains shown)
VH: B1 VH with S54G, E74K, F102Y
VL: B1 VL with T26S, Q27H, I29V, F50Y, Q55H, K93R
B36: AB200-R1a-Fab_Vk5 (Fab, V domains shown)
VH: B1 VH with S54G, E74K, F102Y
VL: B1 VL with T26S, N31S, F50Y, Q55H, K93S, L94T
B37: AB200-R1a-Fab_Vk6 (Fab, V domains shown)
VH: B1 VH with S54G, E74K, F102Y
VL: B1 VL
notes: also called AB200 kappa variant 6; AB200_Vk6_Fab
B38: AB200-R1a-Fab(hCDR1) (Fab, V domains shown)
VH: B1 VH with S54G, E74K, F102Y
VL: B1 VL with S24R, T26S, D28S, N31S, F50Y, Q55H
B39: AB200-R1a-Fab_Vk4 (Fab, V domains shown)
VH: B1 VH with S54G, E74K, F102Y
VL: B1 VL with S24T, S30T, F50Y, Q55H
B40: AB200-R1a-Fab_Vk11 (Fab, V domains shown)
VH: B1 VH with S54G, E74K, F102Y
VL: B1 VL with S24R, T26S, I29V, F50Y, S52T, Q55H
B41: AB200-R1a-Fab_Vk31 (Fab, V domains shown)
VH: B1 VH with S54G, E74K, F102Y
VL: B1 VL with T26S, F50Y, L54I, Q55H, S56I, T97S

What follows are binders tested against T2, extracellular domain of rhesus monkey BCMA (rhesus monkey, UniProt F7FFA0 1-53) (assay: Octet BLI; Fab 200 nM).
T2 construct: extracellular domain; also called RhBCMA
T2 sequence (F7FFA0 entry or part of it): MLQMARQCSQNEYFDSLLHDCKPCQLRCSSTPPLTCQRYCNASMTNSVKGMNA
In the case of B1, the Kd is reported as 3.14 nM.
With B2 the Kd was 15.2 nM.
For B3, the Kd was 18 nM.
With B4 the Kd was 12 nM.
With B5 the Kd was 9.65 nM.
In the case of B6, the Kd is reported as 4.17 nM.
Binder B7 has a Kd of 28.3 nM.
For B8, the Kd was 20.8 nM.
For B9, the Kd was 17.8 nM.

Each binder was assayed against T1, extracellular domain of human BCMA (assay: Octet BLI; Fab 200 nM).
In the case of B1, the Kd is reported as 0.948 nM.
B2 gave a Kd of 14.3 nM.
Work on B3 yielded a Kd of 20.7 nM.
Binder B4 has a Kd of 11.1 nM.
B5 showed a Kd of 4.67 nM.
Work on B6 yielded a Kd of 1.09 nM.
Binder B7 has a Kd of 26.2 nM.
Work on B8 yielded a Kd of 12 nM.
B9 gave a Kd of 13.6 nM.

Target: T2, extracellular domain of rhesus monkey …
Test: Octet BLI; Fab 200 nM
Remark: another data set of the same source
B10 showed a Kd of 7.14 nM.
B11 gave a Kd of 25.1 nM.
B12 gave a Kd of 9.91 nM.
Work on B13 yielded a Kd of 10.7 nM.
Work on B14 yielded a Kd of 7.57 nM.
Work on B15 yielded a Kd of 6.21 nM.
Work on B16 yielded a Kd of 42.1 nM.
B17 was tested, and the Kd was 195 nM.
With B18 the Kd was 14.9 nM.
For B19, the Kd was 5.74 nM.
B20 was tested, and the Kd was 6.37 nM.
For B21, the Kd was 29.7 nM.
B22 was tested, and the Kd was 7.71 nM.
For B23, the Kd was 14.2 nM.
With B24 the Kd was 24.6 nM.
B25 was tested, and the Kd was 113 nM.
For B26, the Kd was 61.4 nM.
For B27, the Kd was 17.9 nM.
Binder B28 has a Kd of 74.7 nM.
B29 was tested, and the Kd was 11 nM.
In the case of B30, the Kd is reported as 5.06 nM.
For B31, the Kd was 13.5 nM.
Binder B32 has a Kd of 11.5 nM.
For B33, the Kd was 8.03 nM.
Binder B34 has a Kd of 44.7 nM.
With B35 the Kd was 4.96 nM.
B36 showed a Kd of 27.5 nM.
Binder B37 has a Kd of 4.26 nM.
For B38, the Kd was 5.3 nM.
With B39 the Kd was 7.9 nM.
In the case of B40, the Kd is reported as 5.74 nM.
Binder B41 has a Kd of 8.96 nM.

Target: T1, extracellular domain of human BCMA
Test: Octet BLI; Fab 200 nM
Remark: another data set of the same source
Binder B10 has a Kd of 2.14 nM.
B11 was tested, and the Kd was 14.7 nM.
With B12 the Kd was 2.48 nM.
For B13, the Kd was 6.39 nM.
B14 was tested, and the Kd was 4.87 nM.
In the case of B15, the Kd is reported as 1.84 nM.
With B16 the Kd was 24.1 nM.
Binder B17 has a Kd of 110 nM.
B18 showed a Kd of 4.27 nM.
B19 was tested, and the Kd was 2.07 nM.
Work on B20 yielded a Kd of 1.75 nM.
B21 gave a Kd of 16.8 nM.
B22 gave a Kd of 4.45 nM.
Binder B23 has a Kd of 5.11 nM.
With B24 the Kd was 7.14 nM.
With B25 the Kd was 82.8 nM.
For B26, the Kd was 32.7 nM.
B27 was tested, and the Kd was 5.56 nM.
B28 was tested, and the Kd was 26.5 nM.
With B29 the Kd was 2.93 nM.
B30 gave a Kd of 1.43 nM.
Work on B31 yielded a Kd of 12.8 nM.
With B32 the Kd was 4.03 nM.
B33 gave a Kd of 2.04 nM.
Work on B34 yielded a Kd of 11.7 nM.
B35 was tested, and the Kd was 1.55 nM.
B36 gave a Kd of 7.83 nM.
B37 was tested, and the Kd was 1.11 nM.
B38 was tested, and the Kd was 1.58 nM.
In the case of B39, the Kd is reported as 2.2 nM.
With B40 the Kd was 1.53 nM.
In the case of B41, the Kd is reported as 2.36 nM.
